Target: the molecule itself
Test: cryo-EM structure

B1: rat GluD2 receptor, C-terminally truncated at residue 870 (GluD2Δ870) (receptor, UniProt Q63226 24-870, looked up)
chain: DSIIHIGAIFDESAKKDDEVFRTAVGDLNQNEEILQTEKITFSVTFVDGNNPFQAVQEACELMNQGILALVSSIGCTSAGSLQSLADAMHIPHLFIQRSTAGTPRSGCGLTRSNRNDDYTLSVRPPVYLNEVILRVVTEYAWQKFIIFYDSEYDIRGIQEFLDKVSQQGMDVALQKVENNINKMITTLFDTMRIEELNRYRDTLRRAILVMNPATAKSFISEVVETNLVAFDCHWIIINEEINDVDVQELVRRSIGRLTIIRQTFPVPQNISQRCFRGNHRISSTLCDPKDPFAQNMEISNLYIYDTVLLLANAFHKKLEDRKWHSMASLSCIRKNSKPWQGGRSMLETIKKGGVNGLTGDLEFGENGGNPNVHFEILGTNYGEELGRGVRKLGCWNPVTGLNGSLTDKKLENNMRGVVLRVVTVLEEPFVMVSENVLGKPKKYQGFSIDVLDALSNYLGFNYEIYVAPDHKYGSPQEDGTWNGLVGELVFKRADIGISALTITPDRENVVDFTTRYMDYSVGVLLRRAEKTVDMFACLAPFDLSLWACIAGTVLLVGLLVYLLNWLNPPRLQMGSMTSTTLYNSMWFVYGSFVQQGGEVPYTTLATRMMMGAWWLFALIVISSYTANLAAFLTITRIESSIQSLQDLSKQTDIPYGTVLDSAVYQHVRMKGLNPFERDSMYSQMWRMINRSNGSENNVLESQAGIQKVKYGNYAFVWDAAVLEYVAINDPDCSFYTVGNTVADRGYGIALQHGSPYRDVFSQRILELQQSGDMDILKHKWWPKNGQCDLYSSVDAKQKGGALDIKSLAGVFCILAAGIVLSCLIAVLETWWSRRKGSRVPSKEDDK
stoichiometry N: 4
